# In US7364741:
# Where two headings read alike, the source gives them in different places.
# B1: probe peptide … for A3.2 (peptide)
# peptide: KVFPYALINK
# modifications: not checked
# B2: … (residues 7-15 of HPV16 protein E6) (peptide)
# peptide: AMFQDPQER
# modifications: not checked
# B3: … (residues 42-50 of HPV16 protein E6) (peptide)
# peptide: QQLLRREVY
# modifications: not checked
# B4: … (residues 59-67 of HPV16 protein E6) (peptide)
# peptide: IVYRDGNPY
# modifications: not checked
# B5: … (residues 29-37 of HPV16 protein E6) (peptide)
# peptide: TIHDIILEC
# modifications: not checked
# B6: … (residues 1-9 of HPV16 protein E6) (peptide)
# peptide: MHQKRTAMF
# modifications: not checked
# B7: … (residues 44-52 of HPV16 protein E6) (peptide)
# peptide: LLRREVYDF
# modifications: not checked
# B8: … (residues 49-57 of HPV16 protein E6) (peptide)
# peptide: VYDFAFRDL
# modifications: not checked
# B9: … (residues 30-38 of HPV16 protein E6) (peptide)
# peptide: IHDIILECV
# modifications: not checked
# B10: … (residues 131-139 of HPV16 protein E6) (peptide)
# peptide: RFHNIRGRW
# modifications: not checked
# B11: … (residues 49-57 of HPV16 protein E7) (peptide)
# peptide: RAHYNIVTF
# modifications: not checked
# B12: … (residues 37-45 of HPV16 protein E6) (peptide)
# peptide: CVYCKQQLL
# modifications: not checked
# B13: … (residues 79-87 of HPV16 protein E6) (peptide)
# peptide: KISEYRHYC
# modifications: not checked
# B14: … (residues 102-110 of HPV16 protein E6) (peptide)
# peptide: PLCDLLIRC
# modifications: not checked
# B15: … (residues 11-19 of HPV16 protein E7) (peptide)
# peptide: YMLDLQPET
# modifications: not checked
# B16: … (residues 12-20 of HPV16 protein E7) (peptide)
# peptide: MLDLQPETT
# modifications: not checked
# B17: … (residues 66-74 of HPV16 protein E7) (peptide)
# peptide: RLCVQSTHV
# modifications: not checked
# B18: … (residues 78-86 of HPV16 protein E7) (peptide)
# peptide: TLEDLLMGT
# modifications: not checked
# B19: … (residues 21-29 of HPV16 protein E6) (peptide)
# peptide: QLCTELQTT
# modifications: not checked
# B20: … (residues 85-93 of HPV16 protein E7) (peptide)
# peptide: GTLGIVCPI
# modifications: not checked
# B21: … (residues 13-21 of HPV18 protein E6) (peptide)
# peptide: KLPDLCTEL
# modifications: not checked
# B22: … (residues 24-32 of HPV18 protein E6) (peptide)
# peptide: SLQDIEITC
# modifications: not checked
# B23: … (residues 29-37 of HPV18 protein E6) (peptide)
# peptide: EITCVYCKT
# modifications: not checked
# B24: … (residues 36-44 of HPV18 protein E6) (peptide)
# peptide: KTVLELTEV
# modifications: not checked
# B25: … (residues 40-48 of HPV18 protein E6) (peptide)
# peptide: ELTEVFEFA
# modifications: not checked
# B26: … (residues 47-55 of HPV18 protein E6) (peptide)
# peptide: FAFKDLFVV
# modifications: not checked
# B27: … (residues 22-30 of HPV16 protein E6) (peptide)
# peptide: LCTELQTTI
# modifications: not checked
# B28: … (residues 88-96 of HPV18 protein E6) (peptide)
# peptide: DTLEKLTNT
# modifications: not checked
# B29: … (residues 93-101 of HPV18 protein E6) (peptide)
# peptide: LTNTGLYNL
# modifications: not checked
# B30: … (residues 86-94 of HPV18 protein E7) (peptide)
# peptide: FQQLFLNTL
# modifications: not checked
# B31: … (residues 88-96 of HPV18 protein E7) (peptide)
# peptide: QLFLNTLSF
# modifications: not checked
# B32: … (residues 89-97 of HPV18 protein E7) (peptide)
# peptide: LFLNTLSFV
# modifications: not checked
# B33: … (residues 94-102 of HPV18 protein E7) (peptide)
# peptide: LSFVCPWCA
# modifications: not checked
# B34: … (residues 61-69 of HPV16 protein E6) (peptide)
# peptide: YRDGNPYAV
# modifications: not checked
# B35: … (residues 37-45 of HPV16 protein E7) (peptide)
# peptide: EIDGPAGQA
# modifications: not checked
# B36: … (residues 73-81 of HPV16 protein E7) (peptide)
# peptide: HVDIRTLED
# modifications: not checked
# B37: … (residues 75-83 of HPV16 protein E6) (peptide)
# peptide: KFYSKISEY
# modifications: not checked
# B38: … (residues 89-97 of HPV16 protein E6) (peptide)
# peptide: SLYGTTLEQ
# modifications: not checked
# B39: … (residues 93-101 of HPV16 protein E6) (peptide)
# peptide: TTLEQQYNK
# modifications: not checked
# B40: … (residues 125-133 of HPV16 protein E6) (peptide)
# peptide: HLDKKQRFH
# modifications: not checked
# Columns and labels:
# [1] = target: T1, HLA-A3.2 molecules isolated from the EBV transformed cell line GM3107 (human)
# [2] = target: T1, HLA-A3.2 molecules isolated from the …; assay: competition with radiolabeled probe [..], purified HLA-A3.2; IC50 standard / IC50 peptide
# [3] = target: HLA-A11.2 molecules isolated from the cell line BVR (human); assay: competition with radiolabeled probe [..], purified HLA-A11.2; IC50 standard / IC50 peptide
# [4] = target: HLA-A2.1 molecules expressed by 174CEM.T2 cells (human); assay: T2 HLA-A2.1 stabilisation, flow cytometry (BB7.2), peptide 200 ug/ml
# [5] = target: HLA-A24 molecules isolated from the EBV transformed cell line KT3 (human); assay: competition with radiolabeled probe [..], purified HLA-A24; IC50 standard / IC50 peptide
# [6] = target: HLA-A1 molecules isolated from the EBV transformed cell line Steinlin (human); assay: competition with radiolabeled probe [..], purified HLA-A1; IC50 standard / IC50 peptide
# [7] = remark: other sources report otherwise
Binder,FI (Fluorescence Index) [4],MF (mean fluorescence) [4],also measured
B1,–,–,IC50 [1]: 30 nM
B2,–,–,"binding ratio to standard [2, 7]: 0.1; binding ratio to standard [3, 7]: 0.84"
B3,–,–,binding ratio to standard [2]: 0.0058; binding ratio to standard [3]: 0.0084
B4,–,–,"binding ratio to standard [2, 7]: 3; binding ratio to standard [3, 7]: 0.47"
B5,1.8,184,–
B6,–,–,binding ratio to standard [5]: 0.0049
B7,–,–,binding ratio to standard [5]: 0.0023
B8,–,–,binding ratio to standard [5]: 0.061
B9,1.3,151,–
B10,–,–,binding ratio to standard [5]: 0.1
B11,–,–,binding ratio to standard [5]: 0.067
B12,–,–,"FI (Fluorescence Index) [4, 7]: 2; MF (mean fluorescence) [4, 7]: 195"
B13,2.2,212,–
B14,2.1,205,–
B15,3.3,284,–
B16,2.3,218,–
B17,2.8,250,–
B18,1.8,183,–
B19,–,–,"FI (Fluorescence Index) [4, 7]: 2.2; MF (mean fluorescence) [4, 7]: 212"
B20,2.3,216,–

Binder,FI (Fluorescence Index) [4],MF (mean fluorescence) [4],also measured
B21,–,–,"FI (Fluorescence Index) [4, 7]: 2.1; MF (mean fluorescence) [4, 7]: 439"
B22,0.7,244,–
B23,–,–,"FI (Fluorescence Index) [4, 7]: 0.5; MF (mean fluorescence) [4, 7]: 206"
B24,2.3,468,–
B25,–,–,"FI (Fluorescence Index) [4, 7]: 1.1; MF (mean fluorescence) [4, 7]: 289"
B26,2.3,463,–
B27,0.7,114,–
B28,0.7,238,–
B29,1.5,352,–
B30,0.8,244,–
B31,0.8,258,–
B32,1.6,360,–
B33,0.9,262,–
B34,–,–,binding ratio to standard [6]: 0.008
B35,–,–,binding ratio to standard [6]: 0.025
B36,–,–,binding ratio to standard [6]: 0.014
B37,–,–,"binding ratio to standard [1, 7]: 0.01"
B38,–,–,binding ratio to standard [2]: 0.008
B39,–,–,binding ratio to standard [2]: 0.078
B40,–,–,"binding ratio to standard [2, 7]: 0.44"
